Assay in all cases: EMSA
For data set [1], the target named is nsp8 (SARS-CoV-2, UniProt P0DTD1 3943-4140).
Data set [2] concerns the target nsp7 (SARS-CoV-2, UniProt P0DTD1 3860-3942).
The target of data set [3] is nsp8ΔN (SARS-CoV-2, UniProt P0DTD1 4019-4140).
The target of data set [4] is nsp7;nsp8 (SARS-CoV-2;SARS-CoV-2, UniProt P0DTD1;P0DTD1 3860-3942;3943-4140, |).
Data set [5] concerns the target nsp7;nsp8ΔN (SARS-CoV-2;SARS-CoV-2, UniProt P0DTD1;P0DTD1 3860-3942;4019-4140, |).

B1: 12-mer ssRNA (FAM, EMSA) (ssRNA)
RNA: GCUUUGAUUUCG
As to B1, the binding result in data set [1] is given as “binds”; in data set [2], “no binding”; in data set [3] it was “no binding”; in data set [4], “binds”; in data set [5] it was “no binding”.
